This note sets out measurements from patent US20170253656A1 (SUTRO BIOPHARMA, published 2017).

T1: hu-CD74 antigen (R&D SYSTEMS catalog #3590-CD-050) (human, UniProt P04233-2 73-232, limits assumed)
T1 construct: Bought antigen; also called rhCD74; human CD74
T1 sequence (looked up): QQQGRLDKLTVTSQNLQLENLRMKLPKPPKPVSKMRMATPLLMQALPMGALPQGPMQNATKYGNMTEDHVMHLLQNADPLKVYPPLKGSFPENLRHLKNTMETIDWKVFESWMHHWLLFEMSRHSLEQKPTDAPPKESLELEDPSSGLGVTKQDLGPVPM

B1: 1198-B10 paired with trastuzumab LC (Fab, V domains shown)
VH: EVQLVESGGGLVQPGGSLRLSCAASGFNISGSWIHWVRQAPGKGLEWVGYIYPDDGDTYYADSVKGRFTISADTSKNTAYLQMNSLRAEDTAVYYCAREGSHNLDKMDYWGQGTLVTVSS
VL: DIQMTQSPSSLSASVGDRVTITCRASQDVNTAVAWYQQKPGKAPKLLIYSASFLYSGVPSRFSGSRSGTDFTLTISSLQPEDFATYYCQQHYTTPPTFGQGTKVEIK
notes: Called Fab clone
B2: 1198-D03 paired with trastuzumab LC (Fab, V domains shown)
VH: EVQLVESGGGLVQPGGSLRLSCAASGFNINNYDIHWVRQAPGKGLEWVANIDPYNGATYYADSVKGRFTISADTSKNTAYLQMNSLRAEDTAVYYCARVLWGFWAPFDYWGQGTLVTVSS
VL: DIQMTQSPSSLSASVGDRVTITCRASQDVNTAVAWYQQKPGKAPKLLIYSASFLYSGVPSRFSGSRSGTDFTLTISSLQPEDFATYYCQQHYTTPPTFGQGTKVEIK
notes: Called Fab clone
B3: 1198-D04 paired with trastuzumab LC (Fab, V domains shown)
VH: EVQLVESGGGLVQPGGSLRLSCAASGFNINNYDIHWVRQAPGKGLEWVANIDPYNGTTYYADSVKGRFTISADTSKNTAYLQMNSLRAEDTAVYYCARVPWGFWAPFDYWGQGTLVTVSS
VL: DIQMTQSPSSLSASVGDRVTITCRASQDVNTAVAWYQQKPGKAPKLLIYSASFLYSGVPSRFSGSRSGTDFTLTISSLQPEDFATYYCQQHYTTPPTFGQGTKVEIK
notes: Called Fab clone
B4: 1198-A01 paired with trastuzumab LC (Fab, V domains shown)
VH: EVQLVESGGGLVQPGGSLRLSCAASGFTFSDYDMSWVRQAPGKGLEWVGFIAQDGSYKYYVDSVKGRFTISRDNAKNSLYLQMNSLRAEDTAVYYCARSKLFRAGQFDYWGQGTLVTVSS
VL: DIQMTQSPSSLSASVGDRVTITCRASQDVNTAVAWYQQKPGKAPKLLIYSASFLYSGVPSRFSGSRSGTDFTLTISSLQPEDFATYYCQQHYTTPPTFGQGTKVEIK
notes: Called Fab clone
B5: 1337-A05 light chain paired with VH 1251-A06 (SEQ ID NO: 236) (Fab, V domains shown)
VH: QVQLVESGGGVVQPGRSLRLSCAASGFDFSSYGMHWVRQAPDKGLEWVAVIWDDGSDRYYADSVKGRFTISRDNSKNTLYLQMNSLRAEDTAVYYCARGGTRVLGAIHGTDVWGQGTTVTVSS
VL: DIQMTQSPSSLSASVGDRVTITCRASQGIGRWVAWYQQKPEKAPKSLIYGADRLQSGVPSRFSGSGSGTDFTLTISSLQPEDFATYYCQQYNSYPLTFGGGTKVEIK
notes: 'in Fab format'
B6: 1337-A07 light chain paired with VH 1251-A06 (SEQ ID NO: 236) (Fab, V domains shown)
VH: QVQLVESGGGVVQPGRSLRLSCAASGFDFSSYGMHWVRQAPDKGLEWVAVIWDDGSDRYYADSVKGRFTISRDNSKNTLYLQMNSLRAEDTAVYYCARGGTRVLGAIHGTDVWGQGTTVTVSS
VL: DIQMTQSPSSLSASVGDRVTITCRASQGISSWVAWYQQKPEKAPKSLIYGASRLQSGVPSRFSGSGSGTDFTLTISSLQPEDFATYYCQQYHTYPLTFGGGTKVEIK
notes: 'in Fab format'
B7: 1337-A09 light chain paired with VH 1251-A06 (SEQ ID NO: 236) (Fab, V domains shown)
VH: QVQLVESGGGVVQPGRSLRLSCAASGFDFSSYGMHWVRQAPDKGLEWVAVIWDDGSDRYYADSVKGRFTISRDNSKNTLYLQMNSLRAEDTAVYYCARGGTRVLGAIHGTDVWGQGTTVTVSS
VL: DIQMTQSPSSLSASVGDRVTITCRASQGIGSWLAWYQQKPEKAPKSLIYAADRLQSGVPSRFSGSGSGTDFTLTISSLQPEDFATYYCQQYHTYPLTFGGGTKVEIK
notes: 'in Fab format'
B8: 1337-A08 light chain paired with VH 1251-A06 (SEQ ID NO: 236) (Fab, V domains shown)
VH: QVQLVESGGGVVQPGRSLRLSCAASGFDFSSYGMHWVRQAPDKGLEWVAVIWDDGSDRYYADSVKGRFTISRDNSKNTLYLQMNSLRAEDTAVYYCARGGTRVLGAIHGTDVWGQGTTVTVSS
VL: DIQMTQSPSSLSASVGDRVTITCRASQDIGSWVAWYQQKPEKAPKSLIYASDSLQSGVPSRFSGSGSGTDFTLTISSLQPEDFATYYCQQYNSYPLTFGGGTKVEIK
notes: 'in Fab format'
B9: 1337-A06 light chain paired with VH 1251-A06 (SEQ ID NO: 236) (Fab, V domains shown)
VH: QVQLVESGGGVVQPGRSLRLSCAASGFDFSSYGMHWVRQAPDKGLEWVAVIWDDGSDRYYADSVKGRFTISRDNSKNTLYLQMNSLRAEDTAVYYCARGGTRVLGAIHGTDVWGQGTTVTVSS
VL: DIQMTQSPSSLSASVGDRVTITCRASQDIGSWVAWYQQKPEKAPKSLIYGADRLQSGVPSRFSGSGSGTDFTLTISSLQPEDFATYYCQQYNSYPLTFGGGTKVEIK
notes: 'in Fab format'
B10: 1337-A10 light chain paired with VH 1251-A06 (SEQ ID NO: 236) (Fab, V domains shown)
VH: QVQLVESGGGVVQPGRSLRLSCAASGFDFSSYGMHWVRQAPDKGLEWVAVIWDDGSDRYYADSVKGRFTISRDNSKNTLYLQMNSLRAEDTAVYYCARGGTRVLGAIHGTDVWGQGTTVTVSS
VL: DIQMTQSPSSLSASVGDRVTITCRASQGISSWVAWYQQKPEKAPKSLIYGSSRLQSGVPSRFSGSGSGTDFTLTISSLQPEDFATYYCQQYNTYPLTFGGGTKVEIK
notes: 'in Fab format'
B11: 1193-C08 (scFv)
scFv: EVQLLESGGGLVQPGGSLRLSCAASGFTFNNNWMSWVRQAPGKGLEWVGIINGDDGYTYYADRVKGRFTIIRDNSKNTLYLQMNSLRAEDTAVYYCAKVALGRPRRFDYWGQGTLVTVSSGGGGSGGGGSGGGGSEIVLTQSPGTLSLTPGERATLSCRASQSVSSNYLAWYQQKPGQAPRLLIYGASSRATGIPDRFSGSGSGTDFTLTISRLEPEDFAMYYCQQHYTTPPTFGQGTKVEIK
notes: Called scFv clone
B12: 1193-H04b (scFv)
scFv: EVQLLESGGGLVQPGGSLRLSCAASGFTFTSSWMSWVRQAPGKGLEWVGIINGYNGITYYADSVKGRFTISRDNSKNTLYLQMNSLRAEDTAVYYCAKPSAPGARRFDYWGQGTLVTVSSGGGGSGGGGSGGGGSEIVLTQSPGTLSLSPGEATLSCRASQSVSSSYLAWYQQRPGQAPRLLIYGASSRATGIPDRFSGSGSGTDFTLTISRLEPEDFAVYYCQQHYTTPPTFGQGTKVEIK
notes: Called scFv clone
B13: 1193-B06 (scFv)
scFv: EVQLLESGGGLVQPGGSLRLSCAASGFTFTGNWMSWVRQAPGKGLEWVGIIYGTSGATYYADSVKGRFTISRDNSKNTLYLQMNSLRAEDTAVYYCAKPSMSGSRGFDYWGQGTLVTVSSGGGGSGGGGSGGGGSEIVLTQSPGTLSLSPGERATLSCRAGQSVSSSYLAWYQQKPGQAPRLLIYGASSRATGIPDRFSGSGSGTDFTLTISRLEPEDFAVYYCQQHYTTPPTFGQGTKVEIK
notes: Called scFv clone; VH3-23 / Vk3-A27; Biacore capture was on anti-human Fc, so an Fc may have been attached
B14: 1193-E06b (scFv)
scFv: EVQLLESGGGLVQPGGSLRLSCAASGFTFNNTDMSWVRQAPGKGLEWVGIINGSGGATNYADSVKGRFTISRDNSKNTLYLQMNSLRAEDTAVYYCAKFENEWEVSMDYWGQGTLVTVSSGGGGSGGGGSGGGGSEIVLTQSPGTLSLSPGERATLSCRASQSVSSSYLAWYQQKPGQAPRLLIYGASSRATGIPDRFSGSGSGTDFTLTISRLEPEDFAVYYCQQHYTTPPTFGQGTKVEIK
notes: Called scFv clone

One assay has as its target T1, hu-CD74 antigen (R&D SYSTEMS catalog …). The assay is described as follows: SPR (Biacore T200), captured on anti-human Fc, rhCD74 analyte. (SPR reads the build-up and loss of mass on a sensor chip optically.)
For the molecule B1, the affinity, expressed as Kd, was 11.9 nM; the koff (commonly the rate constant with which the complex falls apart) is 0.00286 s⁻¹; the kon (in general, the second-order rate constant of association) amounted to 241000 M⁻¹ s⁻¹.
With B2, the Kd (as a rule, a measure of binding affinity in units of concentration) stood at 3.25 nM; the koff worked out at 0.00636 s⁻¹; the kon came out at 1.95e+06 M⁻¹ s⁻¹.
For B3 the same measures were 6.58 nM, 0.00177 s⁻¹ and 268000 M⁻¹ s⁻¹.
On to B4, for which the affinity, expressed as Kd, was 6.6 nM; the koff worked out at 0.00119 s⁻¹; the kon is 179000 M⁻¹ s⁻¹.

The target is the same in a further assay. Described as above. This is another data set of the same source.
B5 gave a Kd of 0.179 nM, a koff of 0.000156 s⁻¹ and a kon of 869000 M⁻¹ s⁻¹.
Molecule B6 had a Kd of 0.18 nM, a koff of 0.000141 s⁻¹ and a kon of 785000 M⁻¹ s⁻¹.
As to B7, binding was characterised by a dissociation constant (Kd) of 0.135 nM, the koff came out at 0.000134 s⁻¹ and the kon was found to be 994000 M⁻¹ s⁻¹.
Regarding B8, the Kd was 0.178 nM, the koff stood at 0.000134 s⁻¹ and the kon was determined as 749000 M⁻¹ s⁻¹.
For B9 the same measures were 0.184 nM, 0.000144 s⁻¹ and 785000 M⁻¹ s⁻¹.
For B10 the same measures were 0.172 nM, 0.000161 s⁻¹ and 935000 M⁻¹ s⁻¹.

A further assay has the same target. The assay is described as above. This is another data set of the same source.
B11 showed a Kd of 78.2 nM, a koff of 0.00908 s⁻¹ and a kon of 116000 M⁻¹ s⁻¹.
B12 registered a Kd of 63.8 nM, a koff of 0.00824 s⁻¹ and a kon of 129000 M⁻¹ s⁻¹.
For B13 the same measures were 29 nM, 0.0274 s⁻¹ and 946000 M⁻¹ s⁻¹.
As to B14, the Kd came to 0.668 nM, the koff was found to be 0.000651 s⁻¹ and the kon turned out to be 975000 M⁻¹ s⁻¹.
